Two molecules from PMC3969988 can be followed below.

Where “and” joins values, the source holds several entries; their conditions need not be identical. Identical values can stand only once.

Assay [1] has as its target T1, recombinant human CAP1 (human), Q01518.
T1 chain: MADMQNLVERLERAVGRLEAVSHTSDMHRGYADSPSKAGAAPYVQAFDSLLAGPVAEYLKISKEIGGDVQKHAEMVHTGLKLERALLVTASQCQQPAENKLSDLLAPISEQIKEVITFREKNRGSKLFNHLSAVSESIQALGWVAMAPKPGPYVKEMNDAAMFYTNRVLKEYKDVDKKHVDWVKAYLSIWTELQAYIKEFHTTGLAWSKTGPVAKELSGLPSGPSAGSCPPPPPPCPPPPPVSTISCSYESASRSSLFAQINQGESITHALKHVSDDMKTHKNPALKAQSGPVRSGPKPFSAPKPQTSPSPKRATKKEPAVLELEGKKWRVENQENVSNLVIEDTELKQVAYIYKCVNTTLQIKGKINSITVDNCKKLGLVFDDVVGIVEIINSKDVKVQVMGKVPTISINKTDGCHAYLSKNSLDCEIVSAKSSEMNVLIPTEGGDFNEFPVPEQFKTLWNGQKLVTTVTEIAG
As to the kind of experiment: ELISA. To be noted: remark: other sources report otherwise.

The target of assay [2] is T2, adenovirus-delivered human resistin (human), Q9HD89.
T2 chain: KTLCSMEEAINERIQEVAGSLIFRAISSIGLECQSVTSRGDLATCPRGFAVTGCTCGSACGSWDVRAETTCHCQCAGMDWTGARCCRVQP
In words: non-reducing SDS gel. To be noted: remark: other sources report otherwise.

B1: non-Fc-conjugated recombinant human resistin protein, Q9HD89 19-108 (ligand)
chain: KTLCSMEEAINERIQEVAGSLIFRAISSIGLECQSVTSRGDLATCPRGFAVTGCTCGSACGSWDVRAETTCHCQCAGMDWTGARCCRVQP
In general, EC50 refers to the concentration giving half of the maximal effect. B1: in assay [1], the EC50 was found to be 0.784 µM.

B2: adenovirus-delivered human resistin, Q9HD89 19-108 (ligand)
chain: KTLCSMEEAINERIQEVAGSLIFRAISSIGLECQSVTSRGDLATCPRGFAVTGCTCGSACGSWDVRAETTCHCQCAGMDWTGARCCRVQP
As a reminder, the stoichiometry N is the number of molecules, sites or subunits per partner or assembly. Turning to B2, the stoichiometry N in assay [2] is 3 and 2.
